Data on one substance can be found in patent US5019384A, “Immunonodulating compositions and their use” (Massachusetts Institute of Technology, priority 1989, dated 1991).

Assay [1] concerns the target T1, I-E^d (Mus musculus, UniProt P01904+P01915).
T1 construct: endogenous in cells
T1 sequence (P01904 26-255): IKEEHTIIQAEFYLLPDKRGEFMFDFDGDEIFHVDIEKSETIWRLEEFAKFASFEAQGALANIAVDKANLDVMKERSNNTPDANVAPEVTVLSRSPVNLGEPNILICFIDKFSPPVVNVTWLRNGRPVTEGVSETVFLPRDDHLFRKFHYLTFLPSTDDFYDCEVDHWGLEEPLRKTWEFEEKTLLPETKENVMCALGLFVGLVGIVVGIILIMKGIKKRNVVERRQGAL
T1 sequence (P01915 27-264 limits assumed): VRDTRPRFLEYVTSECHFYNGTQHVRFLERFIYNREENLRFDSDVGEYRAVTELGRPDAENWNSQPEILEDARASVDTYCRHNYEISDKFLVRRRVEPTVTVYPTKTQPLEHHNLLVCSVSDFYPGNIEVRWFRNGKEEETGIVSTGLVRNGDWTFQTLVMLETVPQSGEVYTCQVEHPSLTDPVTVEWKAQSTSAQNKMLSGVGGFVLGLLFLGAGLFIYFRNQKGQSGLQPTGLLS
Nature of the assay: Gel filtration binding of 125I-labeled peptide to purified Ia (I-E^d). From the text:
The peptide P12-26 was modified by the addition of a tyrosine residue to the N-terminus to serve as an acceptor for the ^125 I.
(§1) Ia-molecules were purifed from Nonidet P-40 (NP-40) lysates of A20 (H2^d) or AKTB-1b (H2^k) cells by affinity chromatography using the following monoclonal antibodies: MK-D6 (I-A^d -specific), 10-3-6 (I-A^k -specific) specific) or 14-4-4 (I-E^d/k -specific) coupled to Sepharose 4B beads (Pharmacia Fine Chemicals, Sweden).
A gel filtration assay was used for determining the degree of association between immunogenic peptides and Ia. The assay is described in: Buus, S. et al., Proceeding of the National Academy of Sciences, U.S.A. (1986) 83:3968, the teaching of which is incorporated herein by reference. Briefly, 40 μmole of purified Ia in 1 percent NP-40/PBS was mixed with 0.2 μmole of ^125 I-labeled peptide (approximately 200,000 cpm for each experiment) and incubated for 48 hours at room temperature to allow for formation of the Ia-peptide complex. The Ia-peptide complexes were separated from free peptide by gel filtration and the percentage of peptide bound to Ia was calculated as the ratio of the ^125 I-labeled peptide in the void volume to the total ^125 I-labeled peptide recovered.
(SEC sorts molecules by how far they enter the pores of the column.)

For assay [2], the target named is T1, I-E^d. Nature of the assay: Inhibition of binding of 125I-labeled Myoglobin (P132-153) to I-E^d. The following applies: 125I Myoglobin (P132-153) bound to I-E^d; read-out: Concentration (μM) of P12-26 Required for 50 percent Inhibition.
Excerpt: as §1
A gel filtration assay was used for determining the degree of association between immunogenic peptides and Ia. The assay is described in: Buus, S. et al., Proceeding of the National Academy of Sciences, U.S.A. (1986) 83:3968, the teaching of which is incorporated herein by reference. […] The Ia-peptide complexes were separated from free peptide by gel filtration and the percentage of peptide bound to Ia was calculated as the ratio of the ^125 I-labeled peptide in the void volume to the total ^125 I-labeled peptide recovered.
For the inhibition assay a dose-range of unlabeled cI P12-26 peptide was added to the incubation mixture of Ia and ^125 I-labeled peptide (600, 120, 24, ad 48 μM). The degree of association between Ia and labeled peptide was determined by gel filtration as described in Table 1. […] The concentration of inhibitory peptide required to obtain a 50 percent inhibition of binding was calculated. […]

Assay [3] concerns I-E^d. Nature of the assay: Restriction of peptide-specific T-cell hybrids assayed on L cells expressing I-A^d or I-E^d. In kind it is cell-based, Balb/c mouse. The following applies: P12-26: of more than 300 hybrids; myoglobin (P135-147): of 80 hybrids. From the text:
That is, they could be stimulated by antigen in the presence of L cells expressing I-A^d, but could not be shown to be stimulated by antigen in the presence of L cells expressing I-E^d.
The proliferation of these same cultures was not inhibited (75,000 cpm) by a monoclonal antibody, 34-1-4S, which is specific for I-E^d and which inhibits the stimulation of a hemocyanin specific, I-E^d resticted T-cell hybridoma.

Assay [4] concerns monoclonal antibody specific for (NANP)50. Nature of the assay: Inhibition of binding of monoclonal antibody specific for (NANP)50 to (NANP)50. The following applies: radiolabelled (NANP)50 bound to microwells. The arrangement: species or system mice. From the text:
The above study was repeated except the antigen was radiolabelled (NANP)50 which was bound to microwells.

“Also recorded” adds a separate entry of the source.

Regarding “P12-26: derived from the cI protein of bacteriophage lambda (residues 12-26)”, the “Binding to the I-E^d molecule (in words)” value in the assay with I-E^d [1] was “binds most tightly; also recorded: binds best; also recorded: binds exceedingly well”. The IC50 with I-E^d [2] was determined as 4 µM. Besides, the “Number of peptide-specific hybrids restricted by I-E^d” value in the assay on I-E^d [3] is “none”. In assay [4], the “Inhibition of binding of monoclonal antibody specific for (NANP)50” value was “did not inhibit binding”.
